Consider 15 sequences from the supplement of paper PMC12764529.

± gives the half width of the 95% confidence interval.

The nature of series [1]: folding stability dG unfold from chymotrypsin proteolysis; higher = more stable. An outline of the steps:
(§1)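 Designed mini-proteins (under 80 residues, no cysteine) in a PA-tagged cDNA display construct were digested with trypsin and chymotrypsin. Each protease was used at 11 concentrations (threefold dilutions) plus a no-protease condition, followed by sequencing. K50 was inferred by Bayesian fitting of sequencing counts, and unfolding free energy was derived against a sequence-predicted unfolded-state K50 and a shared folded-state K50, per protease or combined. Only designs with AlphaFold2 dimer inter-PAE above 15 were kept.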

Series [2] in a line: folding stability dG unfold from trypsin proteolysis; higher = more stable. Summed up:
as §1

The nature of series [3]: folding stability dG unfold (combined trypsin and chymotrypsin); higher = more stable. Summed up:
as §1

For the sequence “SAGGSAGGMSPDAKPIGEKTDESPGPEKVTTTTLKSPDPSLTYTVTTTTVGSTTTTTTTAVPVLSAGGSAGG [r6_923_JUSTAS]”, the “folding stability dG unfold” value in series [1] worked out at 0.134 ± 0.4 kcal/mol; in series [2], 0.439 ± 0.051 kcal/mol; in series [3], 0.261 ± 0.1 kcal/mol.
In the case of “SAGGSAGGMTFTFPPGARVRIAIYNKNGELIEEREIDEPGAKITIEKDEETGEWRIVSIELLEPSAGGSAGG [r6_523_TrROS_Hall]”, the “folding stability dG unfold” value came out at 3.76 ± 0.05 kcal/mol in series [1], 3.12 ± 0.084 kcal/mol in series [2] and 3.45 ± 0.18 kcal/mol in series [3].
With “SAGGSAGGMTIEEKAEELEEELKKKYPDMEVKVEVDPEKGIVKITITDPKNPGKTTELTFPVEESAGGSAGG [r6_478_JUSTAS]”, the “folding stability dG unfold” value in series [1] was 2.23 ± 0.19 kcal/mol; in series [2], 4.2 ± 0.45 kcal/mol; in series [3] it was 3.36 ± 0.15 kcal/mol.
For “SAGGSAGGMTIEVTFPDGTKLTITLENDGPDTLLATAEVEAPRAGGPSIPKEVAAKLAEELLASSAGGSAGG [r6_234_TrMRF]”, the “folding stability dG unfold” value worked out at 1.62 ± 0.081 kcal/mol in series [1], 1.19 ± 0.061 kcal/mol in series [2] and 1.36 ± 0.12 kcal/mol in series [3].
Take “SAGGSAGGMTKDDIIEKLKKEYPDKDVKVLKVEESVLPSGKILAKVTLEFPEEGKTFEKTFEVESAGGSAGG [r6_572_JUSTAS]”: the “folding stability dG unfold” value in series [1] turned out to be 2.69 ± 0.13 kcal/mol; in series [2] it was 2.91 ± 0.3 kcal/mol; in series [3] it was 2.71 ± 0.2 kcal/mol.
The like results for “SAGGSAGGMTLEIEVNGKKIKIEVIKDKETNRYFVRITVDGKEVLIEADSKEDALKAIKELLKKSAGGSAGG [r6_715_TrROS_Hall]” were, in that order, 4.42 ± 0.076 kcal/mol, 2.93 ± 0.059 kcal/mol and 4.12 ± 0.077 kcal/mol.
For the sequence “SAGGSAGGMTLTVDLPLPDGGTVRLEVEPLPDGTVRVRLTYPDGRKAEFETSAPVEVLLERAAGSAGGSAGG [r6_808_TrMRF]”, the “folding stability dG unfold” value in series [1] came to 3.05 ± 0.054 kcal/mol; in series [2], 1.61 ± 0.026 kcal/mol; in series [3], 2.69 ± 0.086 kcal/mol.
Turning to “SAGGSAGGMTPEEERRKKESPVPPVNKVTVKIPVPSSVSEEVAKEIAEKLEKESGAKKVEVILPSAGGSAGG [r6_517_JUSTAS]”, the results for the “folding stability dG unfold” value in series [1], in series [2] and in series [3] were 1.34 ± 0.098 kcal/mol, 0.257 ± 0.042 kcal/mol and 1 ± 0.091 kcal/mol, respectively.
The like results for “SAGGSAGGMTPEELAEQKAEELREKLLAEGRPVSLKITKVTYEVDPKTGTVKVTSDIEIVYGPGSAGGSAGG [r6_454_JUSTAS]” were, in that order, 0.434 ± 0.29 kcal/mol, 1.04 ± 0.08 kcal/mol and 0.986 ± 0.24 kcal/mol.
For the sequence “SAGGSAGGMTSDKPVLPALIRVYYPNEGREETIPVLLGEDMPLEEALRIARELAHPDAKAEILNSAGGSAGG [r6_440_TrMRF]”, the figures for the “folding stability dG unfold” value in series [1], in series [2] and in series [3] were 0.624 ± 0.053 kcal/mol, -0.183 ± 0.093 kcal/mol and 0.395 ± 0.06 kcal/mol, respectively.
The like results for “SAGGSAGGMTTVTYDPSTGVTTVLTPKTDPTSDETSVVTTTVTLPTSPSGGGGTATTTTTTTASSAGGSAGG [r6_952_JUSTAS]” were, in that order, 1.39 ± 0.024 kcal/mol, 0.74 ± 0.051 kcal/mol and 1.18 ± 0.045 kcal/mol.
Turning to “SAGGSAGGMVFENLSEEEAKIIAKNIAENFKKKYPNVKIKVEAEVYKLPNPKVIVVIKLEIEEESAGGSAGG [r6_787_TrMRF]”, the “folding stability dG unfold” value is 3.54 ± 0.07 kcal/mol in series [1], 2.55 ± 0.086 kcal/mol in series [2] and 3.09 ± 0.15 kcal/mol in series [3].
With “SAGGSAGGMVIPFILPGSEFEEEEAIERLLELIETARELNPDTPIIANPLILEVPPPPTETELGSAGGSAGG [r6_728_TrMRF]”, the “folding stability dG unfold” value in series [1] was found to be 0.538 ± 0.13 kcal/mol; in series [2] it was 1.36 ± 0.099 kcal/mol; in series [3], 1.22 ± 0.28 kcal/mol.
In the case of “SAGGSAGGMVIVFDKKNKTIYIYDKKTGKKIEIKVKSIEEAKEAIKKLFPNKKVEIVEVKIFKPSAGGSAGG [r6_286_TrROS_Hall]”, the “folding stability dG unfold” value was 1.9 ± 0.09 kcal/mol in series [1], 1.43 ± 0.065 kcal/mol in series [2] and 1.76 ± 0.2 kcal/mol in series [3].
In the case of “SAGGSAGGMVKLKVYKIPESVPPELRALLEALVEGEGEVEVEPEEAEALLKLPGIEELEVEELESAGGSAGG [r6_381_TrMRF]”, the “folding stability dG unfold” value in series [1] amounted to 1.84 ± 0.059 kcal/mol; in series [2] it was 0.912 ± 0.021 kcal/mol; in series [3], 1.59 ± 0.077 kcal/mol.
